We go through seven molecules from patent publication US20220064327A1 (KYMAB, published 2022).

Like-named read-outs stand apart in the source and are kept apart here.

Assay [1] concerns the target T1, human factor IX (human, UniProt P00740 47-461, 12 glutamic acid residues of the GLA domain are post-translationally γ-carboxylated).
T1 construct: Zymogen used as analyte in SPR, reconstituted at 1 mg/ml; also called FIX; Human FIX (MW ~55 KDa)
Kind of assay: SPR, IgG captured on anti-human IgG Fc, human FIX as analyte. For orientation: SPR reads the build-up and loss of mass on a sensor chip optically.

In assay [2] the target is T1, human factor IX. Described as above. How it is done: (§1) SPR was used to determine the binding affinity (KD) to FIX or FX respectively, the kinetic constants on-rate (kₒₙ) and off-rate (koff). Analyses was performed using a Biacore 8K (GE Healthcare) system.
(§2) Monospecific antibodies (referred as ligand) which had been purified on Protein A were captured onto the anti-human IgG Fc CM4 surface at approximately 2 μg/ml. The ligands were injected for 60 seconds at 10 μl/min in all the active channels of all 8 flow channels. The run was performed at 25° C. using neutral pH HBS-P 1X+CaCl₂ 2.5 mM as running buffer.
(§3) Human FIX (MW ˜55 KDa) or human FX (MW ˜58 KDa) was reconstituted at 1 mg/ml in the running buffer and used as analyte. The analyte was injected in multiple cycle kinetics (MCK) mode at 3 concentrations (1.5 μM, 500 nM and 166.7 nM) with 120 seconds association phase and 200 seconds (for FIX) or 300 seconds (for FX) dissociation phase, at flow rate […] in both active and reference channels. Three injections of 10 mM Glycine pH 1.5 for 60 sec. at 10 μl/min were used for the regeneration phase.
This is another data set of the same source.

Assay [3] has as its target T2, human factor X (human, UniProt P00742 41-179; P00742 183-488).
T2 construct: Zymogen used as analyte in SPR; also called FX; Human FX (MW ~58 KDa)
Kind of assay: SPR, IgG captured on anti-human IgG Fc, human FX as analyte.

For assay [4], the target named is T2, human factor X. The description is as above. How it is done: as §1, §2, §3
This is another data set of the same source.

In assay [5] the target is T2, human factor X. Kind of assay: SPR as in Example 10, human FX as analyte.
For assay [6], the target named is T2, human factor X. Kind of assay: SPR as in Example 10, human FX as analyte. How it is done:
as §2, §3
Affinity and kinetics of purified anti-FIX and anti-FX antibodies for binding to their respective antigens was determined by SPR as described in Example 10 above.
The source holds these as a separate data set.

Assay [7] addresses T1, human factor IX. Kind of assay: SPR (Biacore 8K), antibody captured on anti-human IgG Fc CM4 chip, human FIX injected alone as analyte (10 µM, 180 s per Example 11) [i), B(i]. Here is the method:
(§4) The binding kinetics of the purified bispecific antibody was compared to an isotype control (ISTC). […] FIG. 21A.
(§5) Bispecific antibody (ligand), which had been purified by Protein A capture followed by ion exchange chromatography, was captured on to the anti-human IgG Fc CM4 surface at approximately 2 μg/ml. The ligand was injected at 10 μg/ml for 60 seconds at 10 μl/min in one active channel. The run was performed at 25° C. using neutral pH HBS-P 1×+CaCl₂ 2.5 mM as running buffer.

Assay [8] deals with human FIX and human FX mixed 1:1 (10 µM 10 µM). Description: SPR, bispecific captured on anti-human IgG Fc, second injection of a 1:1 mixture of FIX and FX.
For assay [9], the target named is T2, human factor X. Description: SPR, bispecific captured on anti-human IgG Fc, FIX then FX injected. Here is the method: as §4, §5
Assay [10] addresses T2, human factor X. Description: cell-based or functional assay.

T1 sequence (P00740 47-461 limits assumed): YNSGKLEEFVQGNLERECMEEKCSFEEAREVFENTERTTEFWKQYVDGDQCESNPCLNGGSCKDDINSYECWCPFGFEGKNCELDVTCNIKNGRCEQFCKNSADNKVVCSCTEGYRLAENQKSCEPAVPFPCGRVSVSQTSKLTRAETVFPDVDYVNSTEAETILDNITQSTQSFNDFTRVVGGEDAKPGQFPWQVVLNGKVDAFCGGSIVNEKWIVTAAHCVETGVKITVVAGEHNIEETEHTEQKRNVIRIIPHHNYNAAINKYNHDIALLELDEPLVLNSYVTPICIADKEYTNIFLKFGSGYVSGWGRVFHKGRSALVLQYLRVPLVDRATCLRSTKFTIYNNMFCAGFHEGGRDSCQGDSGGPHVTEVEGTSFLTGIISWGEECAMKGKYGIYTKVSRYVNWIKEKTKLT
T2 sequence (P00742 41-179, chain 1 of 2): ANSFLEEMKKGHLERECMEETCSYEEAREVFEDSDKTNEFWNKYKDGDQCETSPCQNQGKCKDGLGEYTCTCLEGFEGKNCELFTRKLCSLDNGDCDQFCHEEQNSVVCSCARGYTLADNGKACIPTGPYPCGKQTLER
T2 sequence (P00742 183-488, chain 2 of 2): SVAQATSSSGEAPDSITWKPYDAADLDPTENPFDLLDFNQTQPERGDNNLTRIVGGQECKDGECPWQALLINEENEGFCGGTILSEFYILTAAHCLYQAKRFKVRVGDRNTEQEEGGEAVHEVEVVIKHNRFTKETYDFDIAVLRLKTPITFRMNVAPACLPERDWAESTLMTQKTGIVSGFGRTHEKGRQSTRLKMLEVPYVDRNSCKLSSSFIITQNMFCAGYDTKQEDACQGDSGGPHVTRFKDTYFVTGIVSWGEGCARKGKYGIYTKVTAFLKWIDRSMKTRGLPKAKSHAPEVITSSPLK

B1: NINA-0438.0128 (antibody, V domains shown)
VH: EVQLVESGGGFVQPGGSLRLSCAVSGFTFNSYWMSWVRQAPGKGLEWVANINQDGSEKFYVASVKGRFTMSRDNAKKSVYVQMNSLRAEDTAVYYCAREGYSSLSYYGMDVWGQGTTVTVSS
VL: SYVLTQPPSVSVAPGETARITCGGDNIGRKSVYWYQQKSGQAPVLVIYYDSDRPSGIPERFSGSNSGNTATLTISRVEAGDEADYYCQVWDGSSDHWVFGGGTKLTVL
On to B1, for which, in assay [1], the affinity, expressed as Kd, was 300 nM. In addition, in [2], the Kd (commonly the free concentration of one partner at which half of the binding sites on the other are occupied at equilibrium, for simple one-to-one binding) is 293 nM; the off-rate (koff) (usually the first-order rate constant of dissociation) came out at 0.0673 s⁻¹; the association rate constant (kon) (commonly a measure of how fast the partners come together) was 230000 M⁻¹ s⁻¹.

B2: TINA-0213.0128 (antibody, V domains shown)
VH: QVQLVQSGAEVKKTGASVKVSCKASRYSFTSYYMHWVRQAPGQGLEWMGIINPKSGTTSYAQKFQGRVTMTRDTSTSTVYMELSSLRSEDTAVYYCARDGYGSSSRCLQLWGQGTLVTVSS
VL: SYVLTQPPSVSVAPGETARITCGGDNIGRKSVYWYQQKSGQAPVLVIYYDSDRPSGIPERFSGSNSGNTATLTISRVEAGDEADYYCQVWDGSSDHWVFGGGTKLTVL
notes: Monospecific IgG4PE
In [3], B2 displayed a Kd of 1400 nM. In [4], the dissociation constant Kd stood at 1370 nM, the koff turned out to be 0.133 s⁻¹ and the association rate constant (kon) is 96900 M⁻¹ s⁻¹.

B3: NINA-0460.0128 (antibody, V domains shown)
VH: EVQLVESGGGFVQPGGSLRLSCAVSGFTFNSYWMSWVRQAPGKGLEWVANINQDGSEKFYVASVKGRFTMSRDNAKKSVYVQMNSLRAEDTAVYYCAREGYSSSQYYGMDVWGQGTTVTVSS
VL: SYVLTQPPSVSVAPGETARITCGGDNIGRKSVYWYQQKSGQAPVLVIYYDSDRPSGIPERFSGSNSGNTATLTISRVEAGDEADYYCQVWDGSSDHWVFGGGTKLTVL
With B3, the affinity in [1], expressed as Kd, was 180 nM. In assay [2], the affinity, expressed as Kd, was 181 nM; the koff was 0.0318 s⁻¹; the association rate constant (kon) came to 175000 M⁻¹ s⁻¹.

B4: TINA-0200.0128 (antibody, V domains shown)
VH: QVQLVQSGAEVKKPGASVKVSCKASRYSFTSYYLHWVRQAPGQGLEWMGIINPKTGDTSYAQKFQGRVTMTRDTSTTTVYMELSSLRSEDTAVYYCARDGYGSSARCLQLWGQGTLVTVSS
VL: SYVLTQPPSVSVAPGETARITCGGDNIGRKSVYWYQQKSGQAPVLVIYYDSDRPSGIPERFSGSNSGNTATLTISRVEAGDEADYYCQVWDGSSDHWVFGGGTKLTVL
notes: Monospecific IgG4PE
The molecule B4 showed a dissociation constant Kd in [5] of 300 to 3000 nM. In assay [6], the Kd amounted to 2520 nM, the dissociation rate constant (koff) amounted to 0.112 s⁻¹ and the on-rate (kon) was 44300 M⁻¹ s⁻¹. In assay [4], the dissociation constant (Kd) stood at 1130 nM, the koff worked out at 0.115 s⁻¹ and the kon was found to be 103000 M⁻¹ s⁻¹.

B5: TINA-0205.0128 (antibody, V domains shown)
VH: QVQLVQSGAEVKKPGASVKVSCKASRYSFTSYYMHWVRQAPGQGLEWMGIINPKSGDTSYAQKFQGRVTMTRDTSTSTVYMELNSLRSEDTAVYYCARDGYGSSARCLQLWGQGTLVTVSS
VL: SYVLTQPPSVSVAPGETARITCGGDNIGRKSVYWYQQKSGQAPVLVIYYDSDRPSGIPERFSGSNSGNTATLTISRVEAGDEADYYCQVWDGSSDHWVFGGGTKLTVL
notes: Monospecific IgG4PE
Regarding B5, in assay [3], binding was characterised by a dissociation constant (Kd) of 100 nM. In assay [4], the Kd was determined as 1360 nM, the off-rate constant (koff) came to 0.0853 s⁻¹ and the kon was determined as 62600 M⁻¹ s⁻¹.

B6: FIXxFX bispecific antibody IXAX-0436.0202.0128 (bispecific antibody, human IgG4 S228P, lambda)
heavy 1: EVQLVESGGGFVQPGGSLRLSCAVSGFTFNSYWMSWVRQAPGKGLEWVANINQDGSEKFYVASVKGRFTMSRDNAKKSVYVQMNSLRAEDTAVYYCAREGYSSISYYGMDVWGQGTTVTVSSASTKGPSVFPLAPCSRSTSESTAALGCLVKDYFPEPVTVSWNSGALTSGVHTFPAVLQSSGLYSLSSVVTVPSSSLGTQTYTCNVDHKPSNTKVDKRVESKYGPPCPPCPAPEFLGGPSVFLFPPKPKDTLMISRTPEVTCVVVDVSQEDPEVQFNWYVDGVEVHNAKTKPREEQYNSTYRVVSVLTVLHQDWLNGKEYKCKVSNKGLPSSIEKTISKAKGQPREPQVYTLPPSQEEMTKNQVSLTCLVKGFYPSDIAVEWESNGQPENNYKTTPPVLDSDGSFFLYSKLTVDKSRWQEGNVFSCSVMHEALHNHYTQESLSLSP
heavy 2: QVQLIQSGAEVQKPGASVKVSCKASRYSFTSYYMHWVRQAPGQGLEWMGIINPKSGSTSYAQKFQGRVTMTRDTSTSTVYMELSSLRSEDTAVYYCARDGYGSSSRCLQLWGQGTLVTVSSASTKGPSVFPLAPCSRSTSESTAALGCLVKDYFPEPVTVSWNSGALTSGVHTFPAVLQSSGLYSLSSVVTVPSSSLGTQTYTCNVDHKPSNTKVDKRVESKYGPPCPPCPAPEFLGGPSVFLFPPKPKDTLMISRTPEVTCVVVDVSQEDPEVQFNWYVDGVEVHNAKTKPREEQYNSTYRVVSVLTVLHQDWLNGKEYKCKVSNKGLPSSIEKTISKAKGQPREPQVYTLPPSQKEMTKNQVSLTCLVKGFYPSDIAVEWESNGQPENNYKTTPPVLDSDGSFFLYSKLTVDKSRWQEGNVFSCSVMHEALHNHYTQKSLSLSP
light: SYVLTQPPSVSVAPGETARITCGGDNIGRKSVYWYQQKSGQAPVLVIYYDSDRPSGIPERFSGSNSGNTATLTISRVEAGDEADYYCQVWDGSSDHWVFGGGTKLTVLGQPKAAPSVTLFPPSSEELQANKATLVCLISDFYPGAVTVAWKADSSPVKAGVETTTPSKQSNNKYAASSYLSLTPEQWKSHKSYSCQVTHEGSTVEKTVAPTECS
notes: also called N436 bispecific antibody
On to B6, for which the binding result in assay [7] and in assay [9] was “binds” throughout. In addition, in assay [8], the response above that of the anti-FX monospecific antibody (RU) was found to be 25 RU.

B7: IXAX-1280.0999.0325 (bispecific antibody, human IgG4 S228P, lambda)
heavy 1: EVQLVESGGGFVQPGGSLRLSCAVSGFRFNSYWMSWVRQAPGKGLEWVANINQDGSRKFYVASVKGRFTMSRDNAKKSVYVQMNSLRAEDTAVYYCAREGYSSIKYYGMDVWGQGTTVTVSSASTKGPSVFPLAPCSRSTSESTAALGCLVKDYFPEPVTVSWNSGALTSGVHTFPAVLQSSGLYSLSSVVTVPSSSLGTQTYTCNVDHKPSNTKVDKRVESKYGPPCPPCPAPEFLGGPSVFLFPPKPKDTLMISRTPEVTCVVVDVSQEDPEVQFNWYVDGVEVHNAKTKPREEQYNSTYRVVSVLTVLHQDWLNGKEYKCKVSNKGLPSSIEKTISKAKGQPREPQVYTLPPSQEEMTKNQVSLTCLVKGFYPSDIAVEWESNGQPENNYKTTPPVLDSDGSFFLYSKLTVDKSRWQEGNVFSCSVMHEALHNHYTQESLSLSP
heavy 2: QVQLIQSGAKVKKPGASVKVSCKASRYKFTSYYMHWVRQAPGQGLEWMGIINPKSGSTSYAQKFQGRVTMTRDTSTSTVYMELSSLRSEDTAVYYCARDGYGSFSRLIQLWGQGTLVTVSSASTKGPSVFPLAPCSRSTSESTAALGCLVKDYFPEPVTVSWNSGALTSGVHTFPAVLQSSGLYSLSSVVTVPSSSLGTQTYTCNVDHKPSNTKVDKRVESKYGPPCPPCPAPEFLGGPSVFLFPPKPKDTLMISRTPEVTCVVVDVSQEDPEVQFNWYVDGVEVHNAKTKPREEQYNSTYRVVSVLTVLHQDWLNGKEYKCKVSNKGLPSSIEKTISKAKGQPREPQVYTLPPSQKEMTKNQVSLTCLVKGFYPSDIAVEWESNGQPENNYKTTPPVLDSDGSFFLYSKLTVDKSRWQEGNVFSCSVMHEALHNHYTQKSLSLSP
light: YVLTQPPSVSVAPGETARITCGGDNIGRKSVYWYQQKSGQAPVLVIYYDSDRPSGIPERFSGSNSGNTATLTISRVEAGDEADYYCQVWDGSSDHWVFGGGTKLTVLGQPKAAPSVTLFPPSSEELQANKATLVCLISDFYPGAVTVAWKADSSPVKAGVETTTPSKQSNNKYAASSYLSLTPEQWKSHKSYSCQVTHEGSTVEKTVAPTECS
As to B7, the “EC50, kinetic FXase assay (FIXa-catalysed activation of FX to FXa, OD405 nm at 600 s)” value in assay [10] is 3.99 nM.
